According to article PMC6692503, “Short- and Long-Term Effects of UVA on Arabidopsis Are Mediated by a Novel cGMP Phosphodiesterase” (Current Biology, 2019):

Substrate: [H][C@@]12COP(=O)(O)O[C@@]1([H])[C@@H](O)[C@H](n1cnc3c(=O)[nH]c(N)nc31)O2
Experiment: phosphodiesterase assay kit (Biomol Green phosphate detection), Michaelis-Menten plot
Format: biochemical, Arabidopsis thaliana
Settings: 25 °C, 60 min, GST fusion, Figure 3 legend prints 0.2587 μM, substrate of the plot not named in the legend

B1: CN-PDE1 (AtCN-PDE1, PDE1, AtPDE1) (Arabidopsis thaliana) (protein)
chain: MAAKTMRKAEELVEKAMKGNDASHDAWHVWRVRDLALSIAREEGLSSNSDSMEIVELAALLHDIGDYKYIRDPSEEKLVENFLDDEGIEETKKTKILTIINGMGFKDELAGVALCESLPEFGVVQDADRLDAIGAIGIARCFTFGGSRNRVLHDPEIKPRTELTKEQYIKREEQTTINHFHEKLLKLKKLMKTEAGKRRAEKRHKFMEEYLKEFYEEWDGST
B1 was tested, and the Km was 0.259 µM.
